Test results taken from the supplement of paper PMC12042874.
± gives the uncertainty stated by the source.

Assay: amyloid nucleation score (Sup35N fusion, yeast selection) (log enrichment); library NNK2; higher = more nucleation; inactive = no reads after selection
How it was run: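 Nucleation score is defined as the DiMSum log enrichment of output over input reads, with centring on the mode score of non-aggregating sequences. A minimum of 100 input reads was required for each sequence. Reads came from Illumina sequencing of plasmid inserts from psi-negative yeast expressing Sup35N fused to peptides of 20 random codons, induced with 100 μM copper sulfate for 24 hours and grown 7 days at 30°C on medium lacking adenine and uracil.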

RYNPCD and SACLFLDME are within error of each other in amyloid nucleation score: 0.334 ± 0.44 for the first, 0.664 ± 0.41 for the second.

Compared with SACVLCFYQIFFYRVDCTGG, SACVWVNICTSASNGDPG is higher in amyloid nucleation score: 6.414 ± 0.052 for the first, 7.445 ± 0.039 for the second.

SAGYKLDSCTVYWGLACDSR and SAIDWDFQTIFLLSEFQYGF are within error of each other in amyloid nucleation score: -0.366 ± 0.79 for the first, -1.44 ± 1.1 for the second.

Compared with SANHMKTDA, SAPYLIMLRLDSCACGDVF is higher in amyloid nucleation score: 0.436 ± 0.8 for the first, 2.01 ± 0.083 for the second.

SARPELCMPIIRLCGSREDQ and SASMHWYSSRCDTL are within error of each other in amyloid nucleation score: -0.056 ± 0.22 for the first, 0.275 ± 0.29 for the second.

SATARKNILVSLGSVALFDR and SAVNHTYVGD are within error of each other in amyloid nucleation score: -0.82 ± 0.54 for the first, 0.122 ± 1.1 for the second.

SAYVVLIEFVLNKVVGTLLR and SCCFSMGGPVNVVQSSRMVR are within error of each other in amyloid nucleation score: -0.634 ± 0.63 for the first, -0.781 ± 0.55 for the second.

First: SCCNL
Second: SCGYFITKKEH
The amyloid nucleation score of the first is higher: -0.11 ± 0.19 for the first, -0.679 ± 0.3 for the second.

Compared with SCHWNVTRGRWNTKHNLRPK, SCIMLIVPMINSAYAVLLWR is lower in amyloid nucleation score: 1.06 ± 0.4 for the first, -0.771 ± 0.62 for the second.

Going from SCKKCMSYVVVVNIVRHICM to SCLLVEQLP, the amyloid nucleation score falls from 1.86 ± 0.11 to 0.864 ± 0.26.

First: SCPNYTVSIWIYMPFFSWLR
Second: SCRGDKQERKPIHYVRHIWY
The amyloid nucleation score of the first is higher: 2.81 ± 0.08 for the first, -0.798 ± 0.24 for the second.

First: SCRLLDSFDPMSRGKSSQRR
Second: SCSERLSMWLRED
The amyloid nucleation score of the first is lower: -0.003 ± 1.1 for the first, 4.62 ± 0.047 for the second.

SCSHYTVECKGAWGFCACGH and SCSIKSSTVVEDPF are within error of each other in amyloid nucleation score: 0.085 ± 0.36 for the first, 0.049 ± 0.76 for the second.

SCSSCLL and SCSWCMLVPRGGVGVPKG are within error of each other in amyloid nucleation score: -0.183 ± 1 for the first, 0.335 ± 0.22 for the second.

SCVINM and SCWRRMSSITPG are within error of each other in amyloid nucleation score: 1.55 ± 0.11 for the first, 1.68 ± 0.47 for the second.

Compared with SDCGHAEVVCAGNHGGTSYP, SDCRWNCVSMEWIDPTHEDK is lower in amyloid nucleation score: 0.326 ± 0.27 for the first, -0.518 ± 0.2 for the second.

First: SDGEISGEGY
Second: SDICRREMHNTAIFLALF
The amyloid nucleation score of the first is lower: -0.368 ± 1.1 for the first, 1.56 ± 0.1 for the second.

Going from SDLGCLRYRTKGGAVGVDGV to SDMLLVISWFSFVKNK, the amyloid nucleation score rises from 0.653 ± 0.21 to 4.05 ± 0.073.

SDRMELWKNESRLYIGMAVR and SESDSTLRSTIDSRLCGS are within error of each other in amyloid nucleation score: 0.451 ± 0.49 for the first, -0.53 ± 0.55 for the second.

SESHICGV and SESVL are within error of each other in amyloid nucleation score: -1.62 ± 0.62 for the first, -1 ± 0.76 for the second.

Compared with SEVLNVFA, SFDFLSLLSDRCLVLDVSPN is higher in amyloid nucleation score: -1.14 ± 0.34 for the first, 0.761 ± 0.46 for the second.

Going from SFDGGRDGRLMYIGRMLEEL to SFEPFETLEREVPPPLTWPT, the amyloid nucleation score rises from -0.067 ± 0.62 to 1.99 ± 0.2.

SFFFMKSWSGRPPIQLGV and SFFFPWCVTGLRVSHTTAKF are within error of each other in amyloid nucleation score: -0.113 ± 0.65 for the first, -0.237 ± 0.63 for the second.

First: SFFNRESGIWWRGSSWFVLV
Second: SFFVRKLIGNSYHN
The amyloid nucleation score of the first is lower: -0.711 ± 0.48 for the first, 1.89 ± 0.17 for the second.

SFGKVYFN and SFIRMWKDRLYHRLVALNRV are within error of each other in amyloid nucleation score: 0.617 ± 0.53 for the first, 1 ± 0.48 for the second.

Compared with SFITDRADCRQWLLRNNIFA, SFKFFTVQF is higher in amyloid nucleation score: -0.771 ± 0.64 for the first, 6.66 ± 0.088 for the second.

SFKRFQ and SFKSDSFTDYYLIDLAITRG are within error of each other in amyloid nucleation score: -0.347 ± 1.1 for the first, -0.046 ± 1 for the second.

SFMGEK and SFNEWLSR are within error of each other in amyloid nucleation score: -0.453 ± 0.74 for the first, -0.391 ± 0.55 for the second.

SFNVF and SFPLSADEFNCSI are within error of each other in amyloid nucleation score: -0.094 ± 0.6 for the first, -0.314 ± 0.55 for the second.

Going from SFPVWPVMYGGNCFSCFSLG to SFRFMFEVLSVVTYSTRGCA, the amyloid nucleation score falls from 9.094 ± 0.063 to 2.92 ± 0.067.

SFRKILESWKDAYLYDPALT and SFSKNALDNRFWGRFSFFFG are within error of each other in amyloid nucleation score: 0.113 ± 1.1 for the first, 1.3 ± 0.34 for the second.

Going from SFVLSSHKA to SGCWIGRFLSSGVSMKVHVS, the amyloid nucleation score rises from 0.175 ± 0.61 to 1.23 ± 0.4.

SGDMCFWFSQTRHGLFKGIL and SGHISYG are within error of each other in amyloid nucleation score: -0.019 ± 0.37 for the first, 0.192 ± 0.56 for the second.

Compared with SGIAWSLVNVGLGYHYMQGG, SGKTMEVIYNEGSCFCGFLT is higher in amyloid nucleation score: 0.178 ± 0.39 for the first, 8.09 ± 0.081 for the second.

Compared with SGLCSCTVACVGFVHFDARV, SGMISRRHAYGAEVELVGSN is lower in amyloid nucleation score: 5.38 ± 0.084 for the first, 1.17 ± 0.43 for the second.

SGPVVQDKVYHRVNYF and SGSKGRASVNIIDR are within error of each other in amyloid nucleation score: -0.369 ± 1.1 for the first, 0.131 ± 1 for the second.

Going from SGSMKCPSYRYYCPQNIFCT to SGSRMFCVRHMIMSGGVLGS, the amyloid nucleation score falls from 6.43 ± 0.08 to -0.451 ± 0.54.

SGTALTRAESSTLMFNRNYR and SGVLHRCEIPVLRACRLLL are within error of each other in amyloid nucleation score: 0.106 ± 0.41 for the first, 0.425 ± 0.37 for the second.

First: SGVLVCVWTRS
Second: SGWQFQSWRVQRMWLVELSC
The amyloid nucleation score of the first is lower: -1.24 ± 0.49 for the first, 0.494 ± 0.49 for the second.

Compared with SGYMMNFAA, SGYVIHLVDDKALHTCDRNQ is lower in amyloid nucleation score: 1.24 ± 0.32 for the first, 0.294 ± 0.18 for the second.

Compared with SGYVLNAELNAASLLMCGIG, SHCCGFLRGGWNRAQFGYRT is higher in amyloid nucleation score: 0.252 ± 0.74 for the first, 3.38 ± 0.049 for the second.

Compared with SHCPVRYMVGIS, SHCSLEDG is higher in amyloid nucleation score: -1.02 ± 0.78 for the first, 1.22 ± 0.12 for the second.

Compared with SHEMGGFHNSNL, SHFRLCGGVWSSGLMCHGCF is higher in amyloid nucleation score: -1.56 ± 1 for the first, 1.61 ± 0.55 for the second.

SHGVLRMAKIRSWGFDVTVM and SHISDVSKD are within error of each other in amyloid nucleation score: 0.02 ± 0.74 for the first, 0.679 ± 0.26 for the second.

Going from SHLPVWTSKNARSRCDP to SHMIRYRSVDRVHGLFHPQS, the amyloid nucleation score falls from 0.602 ± 0.25 to -0.232 ± 0.37.

SHYTMALSRDIGYGDITKSD and SICGEVYWWNLG are within error of each other in amyloid nucleation score: -0.675 ± 1.1 for the first, -0.978 ± 0.28 for the second.

SIFFARLVVEKSMIQLG and SIGIRIEVLHAYLQTVISNA are within error of each other in amyloid nucleation score: 0.21 ± 0.41 for the first, -0.639 ± 1 for the second.

SIGTGRAESL and SIKCEFELIDLTSQAPCEGQ are within error of each other in amyloid nucleation score: 0.359 ± 0.57 for the first, 0.611 ± 0.5 for the second.

SILIFTLTCSDRNW and SIPIIETGVWYVNNRVLMN are within error of each other in amyloid nucleation score: -0.245 ± 0.76 for the first, -1.43 ± 0.54 for the second.

Going from SIRARGLAMRSYSPT to SIRLYHYKFALRERKV, the amyloid nucleation score rises from -0.093 ± 0.55 to 5.345 ± 0.053.

SISRVVTWNRLRVKACRWAG and SISSGFFWKEAIKGSAVSLW are within error of each other in amyloid nucleation score: 0.601 ± 0.28 for the first, 0.36 ± 0.8 for the second.

First: SIVLMCVLMYPPIDVSSWLS
Second: SIYRFDLTYPNRHHCYNVVI
The amyloid nucleation score of the first is higher: 4.415 ± 0.042 for the first, -0.184 ± 1.1 for the second.

SKAECLMH and SKCCASLTQLITTGVLAYRA are within error of each other in amyloid nucleation score: -0.547 ± 1.1 for the first, 0.489 ± 0.49 for the second.

Compared with SKFHIVIWSSAFFGCNCRLA, SKFYNSYSYFTLFVVVLMFD is lower in amyloid nucleation score: 6.78 ± 0.079 for the first, -0.936 ± 1.1 for the second.

First: SKLFESLVTCLIKGLHVVNN
Second: SKLIVWLTDLASSVSRMLLV
The amyloid nucleation score of the first is lower: 0.479 ± 0.74 for the first, 4.09 ± 0.071 for the second.

Going from SKLMQVRRGVLSGYLSESDE to SKYKRLYVGTNDIIQLDWSN, the amyloid nucleation score rises from -0.149 ± 0.55 to 3.16 ± 0.068.

SLCLRRCMKNKSKQMTMVWR and SLEFCLVWFSSMRRMCV are within error of each other in amyloid nucleation score: -0.247 ± 0.53 for the first, 0.673 ± 0.48 for the second.

SLFARRMWGGTVKWYNDRTY gave an amyloid nucleation score of -0.632 ± 0.76.

In the case of SARIGISRFCPHAVSPVITK, the amyloid nucleation score is reported as “inactive”.
For SARVSWGCWHFAMYSRCIRQ, the amyloid nucleation score was “inactive”.
With SCTHLDW the amyloid nucleation score was “inactive”.
With SDFIMTLSERVVGASLNSCD the amyloid nucleation score was “inactive”.
With SFHIVKDYNSDMYYFFNELV the amyloid nucleation score was “inactive”.
In the case of SFVNFCRLRASLCAVAISTT, the amyloid nucleation score is reported as “inactive”.
In the case of SFYWYRCVDIADSTSKYDGF, the amyloid nucleation score is reported as “inactive”.
With SGFNNISMKQLWWT the amyloid nucleation score was “inactive”.
In the case of SGGHNIVLMI, the amyloid nucleation score is reported as “inactive”.
For SIIIVKFLIGWRILWRSLTY, the amyloid nucleation score was “inactive”.
With SINWAFDYVSVLVGFD the amyloid nucleation score was “inactive”.
With SIRSS the amyloid nucleation score was “inactive”.
With SKCNGFVVALMLVFTSSELD the amyloid nucleation score was “inactive”.
